Assay results: patent publication US10100120B2, “Antibody which specifically binds to human CRTH2” (KYOWA HAKKO KIRIN CO., LTD, priority 2015, dated 2018)

How the values were obtained:
[1] = test system: human eosinophils; test: Agonist, antagonist and ligand-induced signal enhancing activity using shape change of human eosinophils (Example 21); assay type: cell-based; conditions: antibody 10 μg/mL, FIG. 18
Procedure: Eosinophils were separated from human peripheral blood in the same manner as in Example 11. In this case, the step of adding the same amount of physiological saline for injection as the blood to the blood was omitted and the […] on Ficoll-Paque PREMIUM 1.084 (GE Healthcare). The isolated human eosinophils were suspended with D-PBS (−) (NACALAI TESQUE, Inc.) and a reaction was performed in a 5% CO2 incubator at 37° C. for 1 hour and 30 minutes.
Thereafter, the cells were seeded in a 96-well plate at 0.7×10^5 cells/well using 10% FBS-containing RPMI1640. Next, an isotype control antibody, the humanized Lym2 antibody LV0HV1, the anti-human CRTH2 antibody hu19A2 v52, ch8B1, ch3C12, or ch31A5 prepared in Example 9, or the commercially available anti-human CRTH2 antibody BM16 (Santa Cruz Biotechnology), or 301108 (R&D) was added thereto at a final concentration of 10 μg/mL to cause a reaction in a 5% CO2 incubator at 37° C. for 30 minutes. […]
Next, RPMI1640 containing either DKPGD2 (Cayman Chemical) or 10% FBS—was added thereto at a final concentration of 100 nM to cause a reaction in a 5% CO2 incubator at 37° C. for 60 minutes. […] The cells were washed twice with SM, and the shape change of eosinophils was analyzed in the same manner as in Example 19.

[2] = molecular target: T1, human CRTH2 (Homo sapiens, UniProt Q9Y5Y4); test: Binding activity against Azami-Green fusion human CRTH2-expressing CHO/DG44 cells; conditions: 2-30000 ng/mL, compared with monkey CRTH2; FIG. 21
T1 construct: expressed in transfected cells
T1 sequence (Q9Y5Y4 1-395): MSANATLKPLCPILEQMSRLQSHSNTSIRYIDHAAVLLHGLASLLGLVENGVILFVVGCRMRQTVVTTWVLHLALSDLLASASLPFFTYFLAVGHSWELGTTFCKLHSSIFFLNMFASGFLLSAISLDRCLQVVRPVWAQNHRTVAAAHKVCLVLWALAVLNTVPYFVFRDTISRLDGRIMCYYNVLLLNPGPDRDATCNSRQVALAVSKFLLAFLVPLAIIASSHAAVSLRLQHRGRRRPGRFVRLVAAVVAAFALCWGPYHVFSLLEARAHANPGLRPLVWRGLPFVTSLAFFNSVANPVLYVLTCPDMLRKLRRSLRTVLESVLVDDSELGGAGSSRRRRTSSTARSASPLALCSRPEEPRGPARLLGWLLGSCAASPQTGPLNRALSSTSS
Procedure: (§1) The Azami-Green fusion human CRTH2-expressing CHO/DG44 cells and the cynomolgus monkey CRTH2-expressing CHO/DG44 cells established in Example 24 were peeled using 0.02% EDTA solution (NACALAI TESQUE, Inc.), washed with PBS, and suspended with SM. Next, the cells were seeded in a 96-well plate such that each well had 2×10^5 cells, and humanized Lym2 antibody LV0HV1 or the anti-DNP IgG1 antibody at each of final concentrations 30000, 7500, 1875, 469, 117, 29, 7, and 2 ng/mL were added thereto to cause a reaction at 4° C. for 40 minutes.
(§2) After the cells were washed three times with SM, goat anti-Human IgG alexa 647 (Molecular Probes) diluted to a concentration of 10 μg/mL with SM was added thereto at 100 μL/well to perform a reaction at 4° C. for 40 minutes. The cells were washed with SM and resuspended with 100 μL of SM, and the fluorescent intensity was measured by flow cytometry (BD Biosciences, FACS CantoII).
(§3) The data was analyzed by FLowJo 7.65 (Tomy Digital Biology Co., Ltd.).

[3] = test system: cynomolgus monkey CRTH2; test: Binding activity against Azami-Green fusion cynomolgus monkey CRTH2-expressing CHO/DG44 cells; conditions: 2-30000 ng/mL, compared with human CRTH2; FIG. 21
Sequence of cynomolgus monkey CRTH2 (as listed by the source): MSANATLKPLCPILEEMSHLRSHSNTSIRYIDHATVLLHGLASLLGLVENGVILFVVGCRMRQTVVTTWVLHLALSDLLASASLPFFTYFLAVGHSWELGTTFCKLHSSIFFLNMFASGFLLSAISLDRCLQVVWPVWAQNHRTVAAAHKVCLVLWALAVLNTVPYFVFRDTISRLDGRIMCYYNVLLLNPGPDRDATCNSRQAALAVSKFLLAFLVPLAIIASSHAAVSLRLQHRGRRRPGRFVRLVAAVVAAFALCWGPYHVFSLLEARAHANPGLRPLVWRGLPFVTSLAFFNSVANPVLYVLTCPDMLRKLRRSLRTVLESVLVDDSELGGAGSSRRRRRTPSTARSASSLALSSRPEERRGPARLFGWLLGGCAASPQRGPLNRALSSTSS
Procedure: as §1, §2, §3

binding activity against human CRTH2 [2]: substantially the same as each other
B1: LV0HV1: humanized Lym2 antibody, VL LV0 (SEQ ID NO: 33), VH HV1 (SEQ ID NO: 51) (antibody, V domains shown)
VH: EVQLVESGGGVVQPGRSLRLSCAASGFTFSNYYMAWVRQAPGKGLEWVATISYDGSSTYYRDSVKGRFTISRDNAKNSLYLQMNSLRAEDTATYYCARHRGYYYSGAGYFDYWGQGTMVTVSS
VL: DIVMTQTPLSLPVTPGESASISCRSSQSLEYSDGYTYLEWYLQKPGQSPQVLIYGVSNRFSGVPDRFSGSGSGTDFTLKISRVEAEDVGVYYCFQATHDPLTFGQGTKLEIK
effect on shape change of eosinophils induced by DKPGD2 ([1]; DKPGD2 100 nM): do not affect shape change | shape change of eosinophils in the absence of a ligand (agonist activity) ([1]; no DKPGD2): do not affect shape change | binding activity against monkey CRTH2 [3]: substantially the same as each other
